Reference: PMC8271027

Assays:
[1] = biological target: A*03:01/photoKK9 (human)
[2] = biological target: B*27:09/photoRL9 (human)
[3] = biological target: B*27:05/photoRL9 (human)
[4] = biological target: A*03:01/photoKK9 (human); remark: listed apart in the source
[5] = biological target: A*03:01/photoKK9 (human); remark: listed apart in the source
[6] = biological target: B*27:09/photoRL9 (human); remark: listed apart in the source
[7] = biological target: A*02:01/photoKV9 (human)
[8] = biological target: B*27:05/photoRL9 (human); remark: listed apart in the source
[9] = biological target: A*03:01/photoKK9 (human); remark: listed apart in the source
[10] = biological target: B*27:09/photoRL9 (human); remark: listed apart in the source
[11] = biological target: A*02:01/photoKV9 (human); remark: listed apart in the source
[12] = biological target: B*27:05/photoRL9 (human); remark: listed apart in the source
[13] = biological target: A*03:01/photoKK9 (human); remark: listed apart in the source
[14] = biological target: B*27:09/photoRL9 (human); remark: listed apart in the source

## ERp57-Tsn^L18G (from UniProt O15533 21-398; P30101 25-504) (complex)
[1]
  relative catalytic activity in peptide exchange, (Kon mutant - Kon noTsn)/(Kon WT - Kon noTsn); UV-exposed A*03:01/photoKK9, FITC-KK9: 0.36 of WT
[2]
  relative catalytic activity in peptide exchange, (Kon mutant - Kon noTsn)/(Kon WT - Kon noTsn); UV-exposed B*27:09/photoRL9, FITC-IF9: 0.04 of WT
[3]
  relative catalytic activity in peptide exchange, (Kon mutant - Kon noTsn)/(Kon WT - Kon noTsn); UV-exposed B*27:05/photoRL9, FITC-RL9: 0.05 of WT

## ERp57-Tsn^K16G (from UniProt O15533 21-398; P30101 25-504) (complex)
[4]
  relative catalytic activity in peptide exchange; UV-exposed A*03:01/photoKK9, FITC-KK9 (second printing, other number): 0.73 of WT
[1]
  relative catalytic activity in peptide exchange, (Kon mutant - Kon noTsn)/(Kon WT - Kon noTsn); UV-exposed A*03:01/photoKK9, FITC-KK9: 0.77 of WT
[2]
  relative catalytic activity in peptide exchange, (Kon mutant - Kon noTsn)/(Kon WT - Kon noTsn); UV-exposed B*27:09/photoRL9, FITC-IF9: 0.95 of WT
[3]
  relative catalytic activity in peptide exchange, (Kon mutant - Kon noTsn)/(Kon WT - Kon noTsn); UV-exposed B*27:05/photoRL9, FITC-RL9: 0.86 of WT

## TAPBPR (TAP-binding protein-related protein) (from UniProt Q9BX59 19-405) (natural protein)
[5]
  fold increase of the peptide exchange rate (observed Kon of FITC-KK9, fluorescence polarisation) of 500 nM UV-exposed A*03:01/photoKK9 with equimolar TAPBPR against none: 34.3 fold
[6]
  fold increase of the peptide exchange rate (observed Kon of FITC-RL9, fluorescence polarisation) of 500 nM UV-exposed B*27:09/photoRL9 with equimolar TAPBPR against none: 3.13 fold
[7]
  fold increase of the peptide exchange rate (observed Kon of FITC-GV9, fluorescence polarisation) of 500 nM UV-exposed A*02:01/photoKV9 with equimolar TAPBPR against none: 30.9 fold
[8]
  fold increase of the peptide exchange rate (observed Kon of FITC-RL9, fluorescence polarisation) of 500 nM UV-exposed B*27:05/photoRL9 with equimolar TAPBPR against none: 1.48 fold

## ERp57-Tapasin conjugate (wild-type) (from UniProt O15533 21-398; P30101 25-504) (complex)
[9]
  fold increase of the peptide exchange rate (observed Kon of FITC-KK9, fluorescence polarisation) of 500 nM UV-exposed A*03:01/photoKK9 with equimolar ERp57-Tsn^WT against none: 10.9 fold
[10]
  fold increase of the peptide exchange rate (observed Kon of FITC-RL9, fluorescence polarisation) of 500 nM UV-exposed B*27:09/photoRL9 with equimolar ERp57-Tsn^WT against none: 3.83 fold
[11]
  fold increase of the peptide exchange rate (observed Kon of FITC-GV9, fluorescence polarisation) of 500 nM UV-exposed A*02:01/photoKV9 with equimolar ERp57-Tsn^WT against none: 1.31 fold
[12]
  fold increase of the peptide exchange rate (observed Kon of FITC-RL9, fluorescence polarisation) of 500 nM UV-exposed B*27:05/photoRL9 with equimolar ERp57-Tsn^WT against none: 5.83 fold

## ERp57-Tsn^K16L (from UniProt O15533 21-398; P30101 25-504) (complex)
[13]
  relative catalytic activity in peptide exchange against ERp57-Tsn^WT; UV-exposed A*03:01/photoKK9, FITC-KK9: 0.93 of WT
[14]
  relative catalytic activity in peptide exchange against ERp57-Tsn^WT; UV-exposed B*27:09/photoRL9, FITC-IF9: 1.26 of WT
